Assay [1] deals with T1, nYFP-BIN2 (Arabidopsis, UniProt Q39011 1-380).
T1 construct: BiFC construct in transgenic Arabidopsis, crossed to BZR1-cYFP plants; not shown: N-terminal half of YFP (nYFP)
T1 sequence (looked up): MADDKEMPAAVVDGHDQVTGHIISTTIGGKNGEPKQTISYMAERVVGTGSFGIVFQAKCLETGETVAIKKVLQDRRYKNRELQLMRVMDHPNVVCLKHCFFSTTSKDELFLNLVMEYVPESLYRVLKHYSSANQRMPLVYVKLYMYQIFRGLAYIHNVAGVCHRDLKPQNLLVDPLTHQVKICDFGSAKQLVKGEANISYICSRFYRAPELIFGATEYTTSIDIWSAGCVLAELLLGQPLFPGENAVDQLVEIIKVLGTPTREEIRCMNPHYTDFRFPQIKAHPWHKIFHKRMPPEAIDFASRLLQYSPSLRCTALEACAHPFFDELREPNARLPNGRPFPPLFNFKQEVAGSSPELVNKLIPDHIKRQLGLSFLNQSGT
The assay is described as follows: BiFC in Arabidopsis seedlings, epidermal cells. How it is done:
(§1) FIGS. 5A-5G show regulation of the BIN2 homolog, AtSK12 BSU1-mediated tyrosine dephosphorylation. […] Activation domain (AD) fused AtSKs were transformed into the cells containing DNA binding domain (BD) fused BZR1. Yeast clones were grown on Synthetic Dropout (SD) or SD-Histidine medium. […] Transgenic Arabidopsis plants expressing nYFP-BIN2, nYFP-AtSK12 and nYFP-AtSK12-cd (C-terminal 29 amino acid deletion) were crossed to BZR1-cYFP plants, respectively. The seedlings of F1 generation were grown in white light for 7 days and YFP signals of epidermal cells were observed. […] GST-AtSK12 was incubated with MBP-BZR1 and ³²P-γATP. CBB indicates Coomassie brilliant blue-stained gel. […] Homozygous plants expressing AtSK12-myc were treated with 0.25 MM BL for 30 min. Proteins immunoprecipitated by anti-myc antibodies were blotted onto nitrocellulose membrane and probed by anti-myc antibody. […] (h) BR induces pTyr dephosphorylation of AtSK12. Homozygous AtSK12-myc plants were pretreated with 10 μM MG132 and then treated with 0.25 μM BL (+BL) or mock solution (−BL). […]
(§2) Transformation by Agrobacterium infiltration, observations of subcellular localization and BiFC signal in tobacco or Arabidopsis were performed as described previously 5. Fluorescence of YFP was visualized by using a spinning-disk confocal microscope (Leica Microsystems, Heerbruag, Germany).

The target in assay [2] is T2, nYFP-AtSK12 (Arabidopsis, UniProt P43289 1-409).
T2 construct: BiFC construct in transgenic Arabidopsis; not shown: N-terminal half of YFP (nYFP)
T2 sequence (looked up): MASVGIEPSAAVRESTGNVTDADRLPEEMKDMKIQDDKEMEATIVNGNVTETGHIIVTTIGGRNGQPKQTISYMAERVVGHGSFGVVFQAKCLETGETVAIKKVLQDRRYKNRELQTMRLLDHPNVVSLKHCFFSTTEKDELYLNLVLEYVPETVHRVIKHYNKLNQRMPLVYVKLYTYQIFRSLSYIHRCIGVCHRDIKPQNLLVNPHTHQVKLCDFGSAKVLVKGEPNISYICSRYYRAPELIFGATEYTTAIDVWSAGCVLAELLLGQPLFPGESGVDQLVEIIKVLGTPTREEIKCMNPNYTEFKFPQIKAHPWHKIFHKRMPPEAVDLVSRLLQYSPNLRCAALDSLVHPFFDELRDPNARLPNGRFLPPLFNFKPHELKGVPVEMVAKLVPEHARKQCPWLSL
Description: BiFC in Arabidopsis seedlings, epidermal cells. How it is done:
as §1, §2

For assay [3], the target named is T3, BSU1 fused to C-terminal half (cYFP) of YFP (Arabidopsis, UniProt Q9LR78 1-793).
T3 construct: BiFC construct in tobacco leaf epidermal cells, with BIN2-nYFP or bin2-1-nYFP; also called BSU1-cYFP; not shown: C-terminal half of YFP (cYFP)
Description: BiFC in tobacco cells.
From the text: (§3) GST, GST-BIN2 and GST-bin2-1 were separated by SDS-PAGE and blotted onto nitrocellulose membrane. The blot was probed sequentially with MBP-BSU1 and anti-MBP antibody (upper) and then stained with Ponceau S (lower). […] The protein extracts of the tobacco leaves transiently transformed with the indicated constructs were immunoprecipitated with anti-GFP antibody, and the immunoblot was probed with anti-myc and anti-GFP antibody. […] The indicated constructs were transformed into tobacco leaf epidermal cells. Bright spots in BIN2-nYFP+cYFP are chloroplast auto-fluorescence. […] Arabidopsis plants (F1) expressing BSU1-YFP or co-expressing BSU1-YFP and BIN2-myc were grown on the medium containing BR biosynthetic inhibitor, brassinazole (BRZ), for 10 days. The plants were treated with 10 μM MG-132 for 1 hr and then with 0.2 μM BL or mock solution for 15 min. Total protein extracts were immunoprecipitated with anti-myc antibodies, and the immunoblot was probed with anti-GFP and anti-myc antibodies.
as §2

In assay [4] the target is T4, BSL1 fused C-terminal half (cYFP) of yellow fluorescence protein (Arabidopsis, UniProt Q8L7U5 1-881).
T4 construct: BiFC construct; also called BSL1-cYFP; not shown: C-terminal half of YFP (cYFP)
T4 sequence: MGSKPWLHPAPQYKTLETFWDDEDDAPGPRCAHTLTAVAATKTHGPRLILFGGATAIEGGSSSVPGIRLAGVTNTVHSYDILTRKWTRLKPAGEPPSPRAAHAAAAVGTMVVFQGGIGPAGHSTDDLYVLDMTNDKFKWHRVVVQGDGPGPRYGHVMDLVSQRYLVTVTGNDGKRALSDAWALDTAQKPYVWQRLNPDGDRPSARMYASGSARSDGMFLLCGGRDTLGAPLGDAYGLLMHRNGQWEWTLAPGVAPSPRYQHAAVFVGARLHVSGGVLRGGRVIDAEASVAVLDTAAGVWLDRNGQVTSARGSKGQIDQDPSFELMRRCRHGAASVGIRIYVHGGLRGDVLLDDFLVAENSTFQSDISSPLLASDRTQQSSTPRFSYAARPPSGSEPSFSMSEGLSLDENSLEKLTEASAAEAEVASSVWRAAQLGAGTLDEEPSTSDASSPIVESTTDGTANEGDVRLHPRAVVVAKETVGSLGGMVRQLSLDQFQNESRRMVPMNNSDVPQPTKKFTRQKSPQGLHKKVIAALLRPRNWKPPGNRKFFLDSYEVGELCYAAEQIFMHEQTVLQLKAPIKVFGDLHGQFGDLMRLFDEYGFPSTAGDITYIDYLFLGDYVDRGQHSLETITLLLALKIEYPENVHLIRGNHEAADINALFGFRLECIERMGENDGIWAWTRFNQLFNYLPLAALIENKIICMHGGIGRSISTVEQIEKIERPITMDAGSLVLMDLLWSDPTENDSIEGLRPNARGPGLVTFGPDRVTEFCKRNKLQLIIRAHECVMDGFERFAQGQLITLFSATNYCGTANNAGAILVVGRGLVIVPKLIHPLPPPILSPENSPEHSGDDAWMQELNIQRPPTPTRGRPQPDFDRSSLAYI
The assay is described as follows: BiFC in tobacco cells.
From the text: as §3, §2

Assay [5] has as its target T5, MBP-BSU1 (Arabidopsis, UniProt Q9LR78 1-793).
T5 construct: Recombinant fusion used as probe in overlay (far-western) blots and in phosphatase assays; also called BSU1 from E. coli
The assay is described as follows: overlay blot with MBP-BSU1 after incubation of GST-BSK1 with GST-BRI1-K. How it is done:
Total protein extracts obtained from Arabidopsis plants (F1) expressing BSU1 -YFP or co-expressing BSU1-YFP and BSK1-myc were immunoprecipitated with anti-myc, and the immunoblot was probed with anti-GFP and anti-myc antibody. […] GST-BSK1 or GST-BSK1 S230A was incubated with GST-BRI1-K or GST for 2 hrs. […] In the presence of BR (+BR), BR binding to the extracellular domain of BRI1 induces dissociation of BKI1 and association and inter-activation between BRI1 and BAKI. Activated BRI1 then phosphorylates BSK1, which in turn dissociates from the receptor complex and interacts with and presumably activate BSU1. BSU1 inactivates BIN2 by dephosphorylating its pTyr200, allowing accumulation of unphosphorylated BZR1/2, likely with help of a phosphatase that is yet to be identified. Unphosphorylated BZR1/2 accumulate in the nucleus and alter the expression of BR-target genes, leading to cellular and developmental responses. While individual representative protein is shown for each function, in Arabidopsis most of these components have about 2 to 5 homologous proteins (paralogs) that can contribute to the same or similar signaling function.
To test interaction of BSU1 with BIN2 or bin2-1 in vitro, a gel blot separating GST, GST-BIN2, GSTbin2-1 was incubated with 20 μg MBP-BSU1 in 5% non-fat dry milk/PBS buffer and washed four times. The blot was then probed with a polyclonal anti-MBP antibody. […]

T3 sequence (Q9LR78 whole entry, the tested form may be a part): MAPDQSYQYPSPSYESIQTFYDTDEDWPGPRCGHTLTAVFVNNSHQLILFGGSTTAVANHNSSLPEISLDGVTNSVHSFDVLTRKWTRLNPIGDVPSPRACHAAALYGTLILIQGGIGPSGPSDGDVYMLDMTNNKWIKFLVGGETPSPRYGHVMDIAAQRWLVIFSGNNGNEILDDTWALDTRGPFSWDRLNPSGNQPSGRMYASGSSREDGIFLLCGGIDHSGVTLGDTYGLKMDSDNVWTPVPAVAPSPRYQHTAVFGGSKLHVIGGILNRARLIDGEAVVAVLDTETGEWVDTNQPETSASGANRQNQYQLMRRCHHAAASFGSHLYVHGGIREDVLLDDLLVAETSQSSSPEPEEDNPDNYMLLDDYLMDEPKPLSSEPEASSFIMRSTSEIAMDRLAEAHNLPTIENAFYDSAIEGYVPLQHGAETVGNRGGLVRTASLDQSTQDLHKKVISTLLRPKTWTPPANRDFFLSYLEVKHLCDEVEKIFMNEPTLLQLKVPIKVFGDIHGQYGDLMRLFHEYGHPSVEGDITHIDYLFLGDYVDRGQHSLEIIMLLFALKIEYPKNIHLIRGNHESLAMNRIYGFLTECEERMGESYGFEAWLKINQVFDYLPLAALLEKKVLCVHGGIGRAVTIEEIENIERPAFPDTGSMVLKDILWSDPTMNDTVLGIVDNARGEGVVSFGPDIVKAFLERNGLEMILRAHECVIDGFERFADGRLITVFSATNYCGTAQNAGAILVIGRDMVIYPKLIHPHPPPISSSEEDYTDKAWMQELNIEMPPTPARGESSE
T5 sequence (Q9LR78 whole entry, the tested form may be a part): as above

B1: BZR1-cYFP (other, Arabidopsis, UniProt Q8S307 1-336, looked up)
chain: MTSDGATSTSAAAAAAAAAAARRKPSWRERENNRRRERRRRAVAAKIYTGLRAQGDYNLPKHCDNNEVLKALCVEAGWVVEEDGTTYRKGCKPLPGEIAGTSSRVTPYSSQNQSPLSSAFQSPIPSYQVSPSSSSFPSPSRGEPNNNMSSTFFPFLRNGGIPSSLPSLRISNSCPVTPPVSSPTSKNPKPLPNWESIAKQSMAIAKQSMASFNYPFYAVSAPASPTHRHQFHTPATIPECDESDSSTVDSGHWISFQKFAQQQPFSASMVPTSPTFNLVKPAPQQMSPNTAAFQEIGQSSEFKFENSQVKPWEGERIHDVGMEDLELTLGNGKARG
notes: BiFC construct in transgenic Arabidopsis; not shown: C-terminal half of YFP (cYFP)
With B1, the binding result in assay [1] and in assay [2] was “binds” each time.

B2: BIN2 fused to the N-terminal half (nYFP) of YFP (enzyme, Arabidopsis, UniProt Q39011 1-380, looked up)
chain: MADDKEMPAAVVDGHDQVTGHIISTTIGGKNGEPKQTISYMAERVVGTGSFGIVFQAKCLETGETVAIKKVLQDRRYKNRELQLMRVMDHPNVVCLKHCFFSTTSKDELFLNLVMEYVPESLYRVLKHYSSANQRMPLVYVKLYMYQIFRGLAYIHNVAGVCHRDLKPQNLLVDPLTHQVKICDFGSAKQLVKGEANISYICSRFYRAPELIFGATEYTTSIDIWSAGCVLAELLLGQPLFPGENAVDQLVEIIKVLGTPTREEIRCMNPHYTDFRFPQIKAHPWHKIFHKRMPPEAIDFASRLLQYSPSLRCTALEACAHPFFDELREPNARLPNGRPFPPLFNFKQEVAGSSPELVNKLIPDHIKRQLGLSFLNQSGT
notes: BiFC construct in tobacco cells; also called BIN2-nYFP; not shown: N-terminal half of YFP (nYFP)
Consider B2, for which the binding result in assay [3] and in assay [4] was “binds” in each case.

B3: GST-BSK1 phosphorylated by GST-BRI1-K (enzyme, Arabidopsis, UniProt Q944A7 1-512, looked up)
chain: MGCCQSLFSGDNPLGKDGVQPQPLSQNNHGGATTADNGGSGGASGVGGGGGGGGIPSFSEFSFADLKAATNNFSSDNIVSESGEKAPNLVYKGRLQNRRWIAVKKFTKMAWPEPKQFAEEAWGVGKLRHNRLANLIGYCCDGDERLLVAEFMPNDTLAKHLFHWENQTIEWAMRLRVGYYIAEALDYCSTEGRPLYHDLNAYRVLFDEDGDPRLSCFGLMKNSRDGKSYSTNLAYTPPEYLRNGRVTPESVTYSFGTVLLDLLSGKHIPPSHALDMIRGKNIILLMDSHLEGKFSTEEATVVVELASQCLQYEPRERPNTKDLVATLAPLQTKSDVPSYVMLGIKKQEEAPSTPQRPLSPLGEACSRMDLTAIHQILVMTHYRDDEGTNELSFQEWTQQMKDMLDARKRGDQSFREKDFKTAIDCYSQFIDVGTMVSPTVFGRRSLCYLLCDQPDAALRDAMQAQCVYPDWPTAFYMQSVALAKLNMNTDAADMLNEAAQLEEKRQRGGRGS
modifications: phosphorylated by BRI1 kinase domain in vitro; phospho-Ser230 as the site named
notes: GST-BSK1 incubated with GST-BRI1-K and 100 uM ATP for 2 hrs before SDS-PAGE; also called phosphorylated BSK1; not shown: GST (glutathione S-transferase) tag
Take B3: in assay [5], the binding result is reported as “binds”.

The record behind these values is patent publication US20120322150A1 (CARNEGIE INSTITUTION OF WASHINGTON, published 2012).
